Measurements: patent publication US20240279325A1 (Chugai, published 2024)
Each block holds one binder with its values, some of them ahead of it.

Key:
human FcγRIIb = target: T1, human FcγRIIb (human, UniProt P31994 43-217); test: SPR (Biacore), amount bound against IL6R-F652/IL6R-L x 100
T1 sequence: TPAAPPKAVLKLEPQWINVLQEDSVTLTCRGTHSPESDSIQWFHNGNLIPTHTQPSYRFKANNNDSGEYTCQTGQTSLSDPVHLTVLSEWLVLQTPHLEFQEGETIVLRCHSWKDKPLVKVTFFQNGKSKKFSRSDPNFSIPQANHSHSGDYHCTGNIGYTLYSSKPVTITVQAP
Excerpt: (§1) These variants were expressed and purified by the method of Reference Example 1. These Fc variants are called PD variants. Interactions of each PD variant with FcγRIIa type R (allotype R131) and FcγRIIb were comprehensively evaluated by the method of Reference Example 2.

[1] = target: T2, human FcγRIIa type R (allotype R131) (human, UniProt P12318 36-217); test: as above
T2 construct: also called FcγRIIaR; R-type FcγRIIa
T2 chain: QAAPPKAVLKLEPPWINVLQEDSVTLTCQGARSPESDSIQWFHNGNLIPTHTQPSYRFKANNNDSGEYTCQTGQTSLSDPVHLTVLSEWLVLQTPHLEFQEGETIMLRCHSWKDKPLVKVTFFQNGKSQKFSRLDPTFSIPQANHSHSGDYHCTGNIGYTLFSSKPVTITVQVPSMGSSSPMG
Excerpt: as §1

[2] = target: T3, FcγRIIa type R (allotype R131) extracellular domain with C-terminal His tag (human, UniProt P12318 34-217); test: SPR; KD of IL6R-B3/IL6R-L divided by KD of the variant
T3 construct: extracellular domain; also called FcγRIIaR; FcγRIIa R type
T3 sequence (looked up): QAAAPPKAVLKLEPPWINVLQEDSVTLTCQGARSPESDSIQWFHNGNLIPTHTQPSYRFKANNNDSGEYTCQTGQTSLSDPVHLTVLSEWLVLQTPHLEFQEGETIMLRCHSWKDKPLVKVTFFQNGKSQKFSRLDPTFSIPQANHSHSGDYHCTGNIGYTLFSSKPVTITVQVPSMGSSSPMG

[3] = target: T4, FcγRIIb extracellular domain with C-terminal His tag (human, UniProt P31994 43-217); test: as above
T4 construct: extracellular domain
T4 sequence (looked up): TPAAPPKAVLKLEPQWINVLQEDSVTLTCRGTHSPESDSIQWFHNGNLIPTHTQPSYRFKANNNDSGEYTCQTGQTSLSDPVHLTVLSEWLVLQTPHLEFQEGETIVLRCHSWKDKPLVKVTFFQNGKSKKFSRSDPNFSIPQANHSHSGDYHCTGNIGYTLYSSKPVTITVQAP

[4] = target: T4, FcγRIIb extracellular domain with …; test: SPR; KD for FcγRIIaR divided by KD for FcγRIIb
[5] = target: T4, FcγRIIb extracellular domain with …; test: SPR; KD for FcγRIIaH divided by KD for FcγRIIb
[6] = target: T5, FcγRIIa type H (allotype H131) extracellular domain with C-terminal His tag (human, UniProt P12318 34-217); test: SPR (Biacore), antibody captured, FcγR as analyte
T5 construct: extracellular domain; also called FcγRIIaH; FcγRIIa H type
T5 sequence (looked up): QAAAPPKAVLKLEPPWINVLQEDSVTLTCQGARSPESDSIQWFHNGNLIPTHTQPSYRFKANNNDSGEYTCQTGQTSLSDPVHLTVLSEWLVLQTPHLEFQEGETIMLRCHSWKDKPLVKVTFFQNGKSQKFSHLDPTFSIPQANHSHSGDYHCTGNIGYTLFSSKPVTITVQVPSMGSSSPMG

[7] = target: T4, FcγRIIb extracellular domain with …; test: SPR (Biacore), antibody captured, FcγR as analyte
[8] = target: T6, human FcγRIIa type H (allotype H131) extracellular domain with C-terminal His tag (human, UniProt P12318 34-217); test: SPR (Biacore), captured antibody, FcγR analyte
T6 construct: extracellular domain; also called FcγRIIaH; FrgRIIaH
T6 sequence (looked up): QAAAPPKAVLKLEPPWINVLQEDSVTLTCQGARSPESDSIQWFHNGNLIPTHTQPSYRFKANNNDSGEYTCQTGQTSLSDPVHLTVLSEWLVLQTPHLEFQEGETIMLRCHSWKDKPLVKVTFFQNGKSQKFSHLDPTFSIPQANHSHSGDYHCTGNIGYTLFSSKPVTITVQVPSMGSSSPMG

[9] = target: T7, human FcγRIIIa type V (allotype V158) extracellular domain with C-terminal His tag (human, UniProt P08637 17-208); test: SPR (Biacore), captured antibody, FcγR analyte
T7 construct: extracellular domain; also called FcγRIIIaV; FrgRIIIaV
T7 sequence (P08637 17-208 F176V): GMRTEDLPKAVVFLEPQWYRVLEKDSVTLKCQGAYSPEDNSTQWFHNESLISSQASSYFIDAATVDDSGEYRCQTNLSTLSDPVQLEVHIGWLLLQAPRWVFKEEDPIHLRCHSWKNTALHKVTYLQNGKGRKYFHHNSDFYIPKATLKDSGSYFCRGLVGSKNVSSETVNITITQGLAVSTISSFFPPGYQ

[10] = target: T8, human FcγRIIa type R (allotype R131) extracellular domain with C-terminal His tag (human, UniProt P12318 34-217); test: SPR (Biacore), captured antibody, FcγR analyte
T8 construct: extracellular domain; also called FcγRIIaR; FrgRIIaR
T8 sequence (looked up): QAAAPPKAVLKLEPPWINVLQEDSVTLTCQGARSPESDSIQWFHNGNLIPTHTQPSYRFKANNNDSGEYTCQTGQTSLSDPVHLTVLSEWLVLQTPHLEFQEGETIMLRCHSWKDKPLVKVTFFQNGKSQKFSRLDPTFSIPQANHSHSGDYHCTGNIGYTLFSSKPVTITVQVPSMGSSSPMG

[11] = target: T9, human FcγRIa extracellular domain with C-terminal His tag (human, UniProt P12314 16-292); test: SPR (Biacore), captured antibody, FcγR analyte
T9 construct: extracellular domain; also called FrgRIa
T9 sequence (P12314 16-292): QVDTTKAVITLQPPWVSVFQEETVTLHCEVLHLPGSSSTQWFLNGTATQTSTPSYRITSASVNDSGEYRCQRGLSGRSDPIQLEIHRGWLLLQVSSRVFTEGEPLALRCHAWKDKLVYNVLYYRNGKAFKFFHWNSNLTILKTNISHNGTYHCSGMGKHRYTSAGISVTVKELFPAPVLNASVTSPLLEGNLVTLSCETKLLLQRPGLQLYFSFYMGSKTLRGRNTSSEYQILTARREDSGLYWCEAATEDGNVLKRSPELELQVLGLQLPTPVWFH

relative binding activity (human FcγRIIb): 100 IL6R-F652/IL6R-L = 100 | relative binding activity [1]: 100 IL6R-F652/IL6R-L = 100
B1: IL6R-F652/IL6R-L (antibody, human IgG1, kappa)
heavy: QVQLQESGPGLVKPSETLSLTCAVSGHSISHDHAWSWVRQPPGEGLEWIGFISYSGITNYNPSLQGRVTISRDNSKNTLYLQMNSLRAEDTAVYYCARSLARTTAMDYWGEGTLVTVSSASTKGPSVFPLAPSSKSTSGGTAALGCLVKDYFPEPVTVSWNSGALTSGVHTFPAVLQSSGLYSLSSVVTVPSSSLGTQTYICNVNHKPSNTKVDKKVEPKSCDKTHTCPPCPAPELLGGDSVFLFPPKPKDTLYISRTPEVTCVVVDVSHEDPEVKFNWYVDGVEVHNAKTKPREEQYNSTYRVVSVLTVLHQDWLNGKEYKCKVSNKALPAPIEKTISKAKGQPREPQVYTLPPSRDELTKNQVSLTCLVKGFYPSDIAVEWESNGQPENNYKTTPPVLDSDGSFFLYSKLTVDKSRWQQGNVFSCSVMHEALHYHYTQKSLSLSP
light: not shown
notes: copies: 2 + 2

KD(IIaR) OF PARENT POLYPEPTIDE/KD(IIaR) OF ALTERED POLYPEPTIDE [2]: 4.3 | KD(IIb) OF PARENT POLYPEPTIDE/KD(IIb) OF ALTERED POLYPEPTIDE [3]: 471 | KD(IIaR)/KD(IIb) [4]: 38.6 | KD(IIaH)/KD(IIb) [5]: 821 | Kd [6]: 54 µM | Kd [7]: 0.0065 µM
B2: IL6R-BP494/IL6R-L (antibody, human IgG1, kappa, name in EU numbering)
heavy: QVQLQESGPGLVKPSETLSLTCAVSGHSISHDHAWSWVRQPPGEGLEWIGFISYSGITNYNPSLQGRVTISRDNSKNTLYLQMNSLRAEDTAVYYCARSLARTTAMDYWGEGTLVTVSSASTKGPSVFPLAPSSKSTSGGTAALGCLVKDYFPEPVTVSWNSGALTSGVHTFPAVLQSSGLYSLSSVVTVPSSSLGTQTYICNVNHKPSNTKVDKKVEPKSCDKTHTCPPCPAPELLGDDSVFLFPPKPKDTLMISRTPEVTCVVVDVAEEDGEVKFNWYVDGVEVHNAKTKPREEQDNSTYRVVSVLTVLHQDWLNGKEYKCKVSNKALPRPIEKTISKAKGQPREPQVYTLPPSRDELTKNQVSLTCLVKGFYPSDIAVEWESNGQPENNYKTTPPVLDSDGSFFLYSKLTVDKSRWQQGNVFSCSVMHEALHNHYTQESLSLSP
light: not shown
notes: copies: 2 + 2

relative binding activity [8]: 344 % of IL6R-BF648/IL6R-L binding | relative binding activity [9]: 221 % of IL6R-BF648/IL6R-L binding | relative binding activity [10]: 661 % of IL6R-BF648/IL6R-L binding | relative binding activity [11]: 68 % of IL6R-BF648/IL6R-L binding
B3: IL6R-BP195/IL6R-L (antibody, human IgG1, kappa, name in EU numbering)
heavy: QVQLQESGPGLVKPSETLSLTCAVSGHSISHDHAWSWVRQPPGEGLEWIGFISYSGITNYNPSLQGRVTISRDNSKNTLYLQMNSLRAEDTAVYYCARSLARTTAMDYWGEGTLVTVSSASTKGPSVFPLAPSSKSTSGGTAALGCLVKDYFPEPVTVSWNSGALTSGVHTFPAVLQSSGLYSLSSVVTVPSSSLGTQTYICNVNHKPSNTKVDKKVEPKSCDKTHTCPPCPAPDYLGDDSVFLFPPKPKDTLMISRTPEVTCVVVDVSDEDGEVKFNWYVDGVEVHNAKTKPREEQDNSTYRVVSVLTVLHQDWLNGKEYKCKVSNAALPKPIEKTISKAKGQPREPQVYTLPPSRDELTKNQVSLTCLVKGFYPSDIAVEWESNGQPENNYKTTPPVLDSDGSFFLYSKLTVDKSRWQQGNVFSCSVMHEALHNHYTQESLSLSP
light: not shown
notes: Alterations introduced into IL6R-B3, EU numbering; copies: 2 + 2
